According to the supplement of paper PMC10567573:

B1: HDAC6 (parent)
chain: QYMNEGELRVLADTYDSVYLHPNS
B2: RSPH3 (parent)
chain: KAASLARNLAKRRRTYLGGAAGRS

Variants of: B1
Assay: protein stability index of a GFP-peptide fusion (GPS, HEK-293T) (PSI 1-6); higher = more stable
Conditions: c terminus: a fixed tail appended
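Note: lentivirally expressed fusions sorted by FACS into six bins by GFP to DsRed ratio, PSI derived from sequencing read proportions per bin multiplied by bin number.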

Row | Variant | protein stability index
1 | E7G | 3.04
2 | E7H | 2.26
3 | E7I | 1.81
4 | E7K | 1.76
5 | E7L | 2.69
6 | E7M | 2.81
7 | E7N | 1.72
8 | E7P | 2.64
9 | E7Q | 1.66
10 | E7R | 1.55
11 | E7S | 2.04
12 | E7T | 2.62
13 | E7V | 1.5
14 | E7W | 1.72
15 | E7Y | 1.44
16 | L8A | 2.53
17 | L8C | 2.33
18 | L8D | 2.7
19 | L8E | 3.51
20 | L8F | 1.52
21 | L8G | 3.36
22 | L8H | 2.45
23 | L8I | 2.86
24 | L8K | 3
25 | L8M | 1.85

Row | Variant | protein stability index
26 | L8N | 2.62
27 | L8P | 3.84
28 | L8Q | 2.66
29 | L8R | 2.94
30 | L8S | 2.55
31 | L8T | 2.19
32 | L8V | 3.68
33 | L8W | 1.33
34 | L8Y | 2.96
35 | R9A | 1.76
36 | R9C | 1.48
37 | R9D | 2
38 | R9E | 2.7
39 | R9F | 3.31
40 | R9G | 2.18
41 | R9H | 3.19
42 | R9I | 2.13
43 | R9K | 1.69
44 | R9L | 1.6
45 | R9M | 1.46
46 | R9N | 2.67
47 | R9P | 3.26
48 | R9Q | 2.65
49 | R9S | 2.05
50 | R9T | 2.14

Row | Variant | protein stability index
51 | R9V | 4.11
52 | R9W | 1.23
53 | R9Y | 1.87
54 | V10A | 1.79
55 | V10C | 2.51
56 | V10D | 3.61
57 | V10E | 2.46
58 | V10F | 2.69
59 | V10G | 3.15
60 | V10H | 2.31
61 | V10I | 1.84
62 | V10K | 2.01
63 | V10L | 1.66
64 | V10M | 2.08
65 | V10N | 2.15
66 | V10P | 3.53
67 | V10Q | 3.27
68 | V10R | 1.92
69 | V10S | 2.81
70 | V10T | 2.18
71 | V10W | 2.22
72 | V10Y | 2.95
73 | L11A | 1.83
74 | L11C | 1.95
75 | L11D | 3.01

Row | Variant | protein stability index
76 | L11E | 2.36
77 | L11F | 2.01
78 | L11G | 2.46
79 | L11H | 3.13
80 | L11I | 1.78
81 | L11K | 3.03
82 | L11M | 2.98
83 | L11N | 2.32
84 | L11P | 3.49
85 | L11Q | 2.32
86 | L11R | 2.61
87 | L11S | 1.76
88 | L11T | 2
89 | L11V | 2.25
90 | L11W | 2.64
91 | L11Y | 2.14
92 | A12D | 1.57
93 | A12E | 2.36
94 | A12F | 2.89
95 | A12G | 1.68
96 | A12H | 2.31
97 | A12I | 2.73
98 | A12K | 1.98
99 | A12L | 2.58
100 | A12M | 3.21

Row | Variant | protein stability index
101 | A12N | 1.92
102 | A12P | 3.17
103 | A12Q | 2.04
104 | A12R | 2.31
105 | A12S | 2.58
106 | A12T | 2.54
107 | A12V | 1.09
108 | A12W | 1.02
109 | A12Y | 2.1
110 | D13C | 1.2
111 | D13E | 1.6
112 | D13F | 3.63
113 | D13G | 2.86
114 | D13H | 1.77
115 | D13I | 2.2
116 | D13K | 1.16
117 | D13L | 1.45
118 | D13N | 2.23
119 | D13P | 1.94
120 | D13Q | 1.57
121 | D13R | 1.27
122 | D13S | 1.9
123 | D13T | 2.08
124 | D13V | 1.97
125 | D13W | 1.37

Row | Variant | protein stability index
126 | T14A | 2.1
127 | T14C | 2.54
128 | T14D | 2.84
129 | T14E | 2.2
130 | T14F | 1.73
131 | T14H | 2.73
132 | T14K | 1.76
133 | T14L | 1.28
134 | T14N | 2.36
135 | T14P | 2.53
136 | T14Q | 3.12
137 | T14R | 2.51
138 | T14S | 2.04
139 | T14V | 1.5
140 | T14W | 1.43
141 | T14Y | 2.92
142 | Y15A | 2.75
143 | Y15C | 2.46
144 | Y15D | 3.86
145 | Y15E | 3.18
146 | Y15F | 1.83
147 | Y15G | 2.6
148 | Y15H | 3.13
149 | Y15I | 1.81
150 | Y15K | 3.46

Row | Variant | protein stability index
151 | Y15L | 2.69
152 | Y15M | 2.79
153 | Y15N | 2.65
154 | Y15P | 1.9
155 | Y15Q | 2.95
156 | Y15R | 3.05
157 | Y15S | 3.18
158 | Y15T | 2.82
159 | Y15V | 2.38
160 | Y15W | 2.25
161 | D16C | 4.03
162 | D16E | 2.42
163 | D16F | 3.19
164 | D16P | 2.56
165 | D16S | 3.08
166 | D16T | 1.8
167 | D16V | 2.42
168 | D16W | 4.07
169 | S17C | 2.46
170 | S17D | 2.56
171 | S17E | 2.99
172 | S17F | 2.53
173 | S17G | 2.05
174 | S17H | 2.07
175 | S17I | 2.32

Row | Variant | protein stability index
176 | S17K | 1.78
177 | S17L | 2.02
178 | S17M | 1.95
179 | S17N | 2.08
180 | S17P | 3.32
181 | S17Q | 2.5
182 | S17R | 2.18
183 | S17T | 2.37
184 | S17V | 2.09
185 | S17W | 2.57
186 | S17Y | 1.47
187 | V18A | 2.56
188 | V18C | 2.17
189 | V18D | 2.87
190 | V18E | 3.18
191 | V18F | 2.23
192 | V18G | 2.6
193 | V18H | 2.68
194 | V18I | 1.51
195 | V18K | 2.63
196 | V18L | 1.95
197 | V18M | 2.25
198 | V18N | 2.98
199 | V18P | 1.92
200 | V18Q | 3.02

Row | Variant | protein stability index
201 | V18R | 2.63
202 | V18S | 2.88
203 | V18T | 1.77
204 | V18W | 2.1
205 | V18Y | 2.21
206 | Y19A | 2.49
207 | Y19C | 2.13
208 | Y19D | 3.32
209 | Y19E | 3.03
210 | Y19F | 2.11
211 | Y19G | 3.72
212 | Y19H | 2.45
213 | Y19I | 1.79
214 | Y19K | 1.71
215 | Y19L | 2.1
216 | Y19M | 1.9
217 | Y19N | 2.62
218 | Y19P | 2.32
219 | Y19Q | 3
220 | Y19R | 1.59
221 | Y19S | 2.14
222 | Y19T | 3.2
223 | Y19V | 4.09
224 | Y19W | 4.22
225 | L20A | 2.54

Row | Variant | protein stability index
226 | L20D | 3.27
227 | L20E | 2.26
228 | L20F | 2
229 | L20G | 2.14
230 | L20H | 3
231 | L20I | 1.39
232 | L20K | 1.87
233 | L20M | 2.14
234 | L20N | 2.42
235 | L20P | 2.68
236 | L20Q | 2.58
237 | L20R | 2.06
238 | L20S | 3.32
239 | L20T | 2.88
240 | L20V | 2.22
241 | L20W | 1.67
242 | L20Y | 2.38
243 | H21A | 1.43
244 | H21C | 3.56
245 | H21D | 1.84
246 | H21E | 2.33
247 | H21F | 3.64
248 | H21G | 1.64
249 | H21I | 2.25
250 | H21K | 1.92

Row | Variant | protein stability index
251 | H21L | 1.71
252 | H21M | 1.47
253 | H21N | 2.21
254 | H21P | 1.85
255 | H21Q | 2.11
256 | H21R | 1.76
257 | H21S | 1.55
258 | H21T | 1.38
259 | H21W | 1.84
260 | H21Y | 2.18
261 | P22A | 2.15
262 | P22C | 1.85
263 | P22D | 2.37
264 | P22E | 2.13
265 | P22F | 1.82
266 | P22G | 2.27
267 | P22H | 2.4
268 | P22I | 2.08
269 | P22K | 1.96
270 | P22L | 1.3
271 | P22M | 2.15
272 | P22N | 1.38
273 | P22Q | 1.58
274 | P22R | 1.96
275 | P22S | 1.68

Row | Variant | protein stability index
276 | P22T | 1.66
277 | P22V | 1.83
278 | P22W | 2.56
279 | P22Y | 1.41
280 | N23A | 1.43
281 | N23C | 1.99
282 | N23D | 1.8
283 | N23E | 2.69
284 | N23F | 1.96
285 | N23H | 1.94
286 | N23I | 2.31
287 | N23K | 2.36
288 | N23L | 1.6
289 | N23M | 1.23
290 | N23P | 1.57
291 | N23Q | 1.92
292 | N23R | 2.17
293 | N23S | 2.34
294 | N23T | 2.03
295 | N23V | 2.03
296 | N23W | 1.46
297 | N23Y | 1.73
298 | S24A | 1.44
299 | S24C | 1.64
300 | S24D | 2.58

Row | Variant | protein stability index
301 | S24E | 1.73
302 | S24F | 1.58
303 | S24G | 2.24
304 | S24H | 1.61
305 | S24I | 3.21
306 | S24K | 1.46
307 | S24L | 1.52
308 | S24M | 1.57
309 | S24N | 2.04
310 | S24P | 1.91
311 | S24Q | 3.76
312 | S24R | 2.4
313 | S24T | 1.52
314 | S24V | 1.74
315 | S24W | 1.24
316 | S24Y | 1.41

Variants of: B2
Assay: as above
Conditions: c terminus: a fixed tail appended

Row | Variant | protein stability index
317 | K1A | 1.98
318 | K1C | 1.87
319 | K1F | 1.47
320 | K1G | 3.77
321 | K1H | 2.49
322 | K1T | 2.98
323 | K1W | 2.29
324 | A2E | 3.41
325 | A2F | 2.08
326 | A2G | 3
327 | A2I | 1.71
328 | A2N | 3.47
329 | A2Q | 3.13
330 | A2R | 3.91
331 | A2S | 3.04
332 | A2T | 3.68
333 | A3D | 3.02
334 | A3E | 3.16
